The source of these data is PMC4754353.

For orientation: Kd means a measure of binding affinity in units of concentration. Read a low Kd as tighter binding.

The test addresses Nrp1 immobilized on the BLI biosensor (UniProt Q9QWJ9). Briefly: BLI.

Take “human glycyl-tRNA synthetase P234KY mutant (P234KY-GlyRS^CMT2D), non-tagged (enzyme)”: the Kd is 209 nM. This counts as sub-micromolar.

With “human glycyl-tRNA synthetase L129P mutant (L129P-GlyRS^CMT2D), non-tagged (enzyme)”, the Kd is 29.8 nM.
